Source: patent US20150344570A1 (published 2015)

T1: FcγRIIa R (human, UniProt P12318 34-217)
T1 construct: extracellular domain; Soluble His-tagged extracellular domain expressed in FreeStyle293 cells; analyte in Biacore; also called FcgRIIa R; FcgRIIaR; not shown: His tag attached to the C terminus
T1 sequence (looked up): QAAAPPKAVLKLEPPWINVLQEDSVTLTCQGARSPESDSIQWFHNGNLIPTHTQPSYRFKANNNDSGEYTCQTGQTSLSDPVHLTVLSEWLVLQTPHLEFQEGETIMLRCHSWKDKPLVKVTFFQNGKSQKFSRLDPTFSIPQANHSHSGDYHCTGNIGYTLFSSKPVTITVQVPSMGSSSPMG

T2: FcγRIIb (human, UniProt P31994 43-217)
T2 construct: extracellular domain; Soluble His-tagged extracellular domain expressed in FreeStyle293 cells; analyte in Biacore; also called FcgRIIb; 2b; not shown: His tag attached to the C terminus
T2 sequence (looked up): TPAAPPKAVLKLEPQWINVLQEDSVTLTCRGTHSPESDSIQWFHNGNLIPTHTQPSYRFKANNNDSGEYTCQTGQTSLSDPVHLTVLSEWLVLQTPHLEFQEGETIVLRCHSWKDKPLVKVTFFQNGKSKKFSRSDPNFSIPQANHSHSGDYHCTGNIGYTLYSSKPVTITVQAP

T3: FcγRIIa R (extracellular domain, His tag at the C terminus) (human, UniProt P12318 34-217)
T3 construct: extracellular domain; Soluble analyte in Biacore; also called FcgRIIa R type; 2aR
T3 sequence (looked up): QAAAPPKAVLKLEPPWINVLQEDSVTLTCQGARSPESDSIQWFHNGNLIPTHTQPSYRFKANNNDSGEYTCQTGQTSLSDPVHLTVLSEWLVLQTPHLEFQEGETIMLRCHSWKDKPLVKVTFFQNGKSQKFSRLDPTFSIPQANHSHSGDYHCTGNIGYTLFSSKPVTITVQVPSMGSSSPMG


Assays:
[1] = molecular target: T1, FcγRIIa R; test: SPR (Biacore), antibody captured via antigen peptide, FcγR as analyte
Description: (§1) The heterodimerized antibodies He Abs in which one of the H chains was introduced with an alteration were assayed for their binding activities to each activating FcγR and inhibitory FcγR according to the method described in Example 4. […] The activating FcγRs in FIGS. 26, 27, 28, and 29 are FcγRIa, FcγRIIa (R), FcγRIIa (H), and FcγRIIIa, respectively.
(§2) Analysis of interaction between objective antibody and the FcγR was carried out using Biacore T100 (GE Healthcare). HBS-EP+ (GE Healthcare) was used as the running buffer, and the measurement temperature was set to 25° C. Chips produced by immobilizing the antigen peptide by the amine coupling method to a Series S Sencor Chip CM5 (GE Healthcare), or alternatively, chips produced by allowing preliminarily biotinylated antigen peptides to interact with and immobilize onto a Series S Sensor Chip SA (certified) (GE Healthcare) were used. Antibodies of interest were captured onto an antigen peptide-immobilized chip, and allowed to interact to each FcγR diluted with running buffer. To regenerate and repeatedly use the chip, the antibodies captured on the chip were washed off by reacting 10 mM glycine-HCl, pH 1.5.

[2] = molecular target: T2, FcγRIIb; test: as above
Description: as §1, §2

[3] = molecular target: T1, FcγRIIa R; test: ratio of He/Con_2aR to He/Con_2b (binding to FcγRIIb as reference); SPR
[4] = molecular target: T3, FcγRIIa R (extracellular domain, His …); test: SPR (Biacore), relative binding, control GpH7-A5/GpH7-B3/GpL16-k0 = 100

| Binder | He/Con_2aR (IIaR binding relative to GpH7-A5/GpH7-B3/GpL16-k0) [1] | He/Con_2b (IIb binding relative to GpH7-A5/GpH7-B3/GpL16-k0) [2] | He_2aR/2b (IIaR/IIb) [3] | He/Con_2aR [4] |
| --- | --- | --- | --- | --- |
| GpH7-A5/GpH7-B3 variant P329_01G/GpL16-k0 (antibody, human IgG1, kappa, Heterodimerized anti-glypican-3 IgG1 antibody; alteration only in the GpH7-B3 H chain; position in EU numbering; also called He Ab) heavy 1: not shown heavy 2: not shown light: DIVMTQSPLSLPVTPGEPASISCQASESLVHSNRNTYLHWYLQKPGQSPQLLIYKVSNRFSGVPDRFSGSGSGTDFTLKISRVEAEDVGVYYCSQNTHVPPTFGQGTKVEIERTVAAPSVFIFPPSDEQLKSGTASVVCLLNNFYPREAKVQWKVDNALQSGNSQESVTEQDSKDSTYSLSSTLTLSKADYEKHKVYACEVTHQGLSSPVTKSFNRGEC | 55 % of control (control = 100) | 41.7 % of control (control = 100) | 1.32 |  |
| GpH7-A5/GpH7-B3 variant A330_09D/GpL16-k0 (antibody, human IgG1, kappa, Heterodimerized anti-glypican-3 IgG1 antibody; alteration only in the GpH7-B3 H chain; position in EU numbering; also called He Ab) heavy 1: not shown heavy 2: not shown light: DIVMTQSPLSLPVTPGEPASISCQASESLVHSNRNTYLHWYLQKPGQSPQLLIYKVSNRFSGVPDRFSGSGSGTDFTLKISRVEAEDVGVYYCSQNTHVPPTFGQGTKVEIERTVAAPSVFIFPPSDEQLKSGTASVVCLLNNFYPREAKVQWKVDNALQSGNSQESVTEQDSKDSTYSLSSTLTLSKADYEKHKVYACEVTHQGLSSPVTKSFNRGEC | 70.9 % of control (control = 100) | 55.6 % of control (control = 100) | 1.27 |  |
| GpH7-A5/GpH7-B3 variant A330_12R/GpL16-k0 (antibody, human IgG1, kappa, Heterodimerized anti-glypican-3 IgG1 antibody; alteration only in the GpH7-B3 H chain; position in EU numbering; also called He Ab) heavy 1: not shown heavy 2: not shown light: DIVMTQSPLSLPVTPGEPASISCQASESLVHSNRNTYLHWYLQKPGQSPQLLIYKVSNRFSGVPDRFSGSGSGTDFTLKISRVEAEDVGVYYCSQNTHVPPTFGQGTKVEIERTVAAPSVFIFPPSDEQLKSGTASVVCLLNNFYPREAKVQWKVDNALQSGNSQESVTEQDSKDSTYSLSSTLTLSKADYEKHKVYACEVTHQGLSSPVTKSFNRGEC | 104 % of control (control = 100) | 84.8 % of control (control = 100) | 1.22 |  |
| GpH7-A5/GpH7-B3 variant A330_07I/GpL16-k0 (antibody, human IgG1, kappa, Heterodimerized anti-glypican-3 IgG1 antibody; alteration only in the GpH7-B3 H chain; position in EU numbering; also called He Ab) heavy 1: not shown heavy 2: not shown light: DIVMTQSPLSLPVTPGEPASISCQASESLVHSNRNTYLHWYLQKPGQSPQLLIYKVSNRFSGVPDRFSGSGSGTDFTLKISRVEAEDVGVYYCSQNTHVPPTFGQGTKVEIERTVAAPSVFIFPPSDEQLKSGTASVVCLLNNFYPREAKVQWKVDNALQSGNSQESVTEQDSKDSTYSLSSTLTLSKADYEKHKVYACEVTHQGLSSPVTKSFNRGEC | 85.6 % of control (control = 100) | 67.1 % of control (control = 100) | 1.27 |  |

Continued, values first:

| He/Con_2aR (IIaR binding relative to GpH7-A5/GpH7-B3/GpL16-k0) [1] | He/Con_2b (IIb binding relative to GpH7-A5/GpH7-B3/GpL16-k0) [2] | He_2aR/2b (IIaR/IIb) [3] | He/Con_2aR [4] | Binder |
| --- | --- | --- | --- | --- |
|  |  |  | 109 % of control | GpH7-A5/GpH7-B3 variant T335_20W/GpL16-k0 (antibody, human IgG1, kappa, heterodimerized; also called He Ab) heavy 1: not shown heavy 2: not shown light: DIVMTQSPLSLPVTPGEPASISCQASESLVHSNRNTYLHWYLQKPGQSPQLLIYKVSNRFSGVPDRFSGSGSGTDFTLKISRVEAEDVGVYYCSQNTHVPPTFGQGTKVEIERTVAAPSVFIFPPSDEQLKSGTASVVCLLNNFYPREAKVQWKVDNALQSGNSQESVTEQDSKDSTYSLSSTLTLSKADYEKHKVYACEVTHQGLSSPVTKSFNRGEC |
|  |  |  | 150 % of control | GpH7-A5/GpH7-B3 variant V266_06M/GpL16-k0 (antibody, human IgG1, kappa, heterodimerized; also called He Ab) heavy 1: not shown heavy 2: not shown light: DIVMTQSPLSLPVTPGEPASISCQASESLVHSNRNTYLHWYLQKPGQSPQLLIYKVSNRFSGVPDRFSGSGSGTDFTLKISRVEAEDVGVYYCSQNTHVPPTFGQGTKVEIERTVAAPSVFIFPPSDEQLKSGTASVVCLLNNFYPREAKVQWKVDNALQSGNSQESVTEQDSKDSTYSLSSTLTLSKADYEKHKVYACEVTHQGLSSPVTKSFNRGEC |
| 10.8 % of control (control = 100) |  | 1.47 |  | GpH7-A5/GpH7-B3 variant Y300_05P/GpL16-k0 (antibody, human IgG1, kappa, Heterodimerized anti-glypican-3 IgG1 antibody; alteration only in the GpH7-B3 H chain; position in EU numbering; also called He Ab) heavy 1: not shown heavy 2: not shown light: DIVMTQSPLSLPVTPGEPASISCQASESLVHSNRNTYLHWYLQKPGQSPQLLIYKVSNRFSGVPDRFSGSGSGTDFTLKISRVEAEDVGVYYCSQNTHVPPTFGQGTKVEIERTVAAPSVFIFPPSDEQLKSGTASVVCLLNNFYPREAKVQWKVDNALQSGNSQESVTEQDSKDSTYSLSSTLTLSKADYEKHKVYACEVTHQGLSSPVTKSFNRGEC |
